Laboratory results: patent US6482925

Assays:
[1] = biological target: MHC class II molecules on Daudi B cells; assay: 51Cr Daudi cell adhesion to transfected Cos-7 cells
[2] = biological target: MHC class II molecules on Daudi B cells; assay: 51Cr Daudi cell adhesion to transfected Cos-7 cells; cpm relative to wild-type, background not subtracted

Binder | fold increase of binding against wild-type LAG-3 [1] [fold] | Adhesion (relative to wild-type LAG-3) [2]
LAG-3 mutant R75E (receptor) LQPGAEVPVVWAQEGAPAQLPCSPTIPLQDLSLLRRAGVTWQHQPDSGPPAAAPGHPLAPGPHPAAPSSWGPRPERYTVLSVGPGGLRSGRLPLQPRVQLDERGRQRGDFSLWLRPARRADAGEYRAAVHLRDRALSCRLRLRLGQASMTASPPGSLRASDWVILNCSFSRPDRPASVHWFRNRGQGRVPVRESPHHHLAESFLFLPQVSPMDSGPWGCILTYRDGFNVSIMYNLTVLGLEPPTPLTVYAGAGSRVGLPCRLPAGVGTRSFLTAKWTPPGGGPDLLVTGDNGDFTLRLEDVSQAQAGTYTCHIHLQEQQLNATVTLAIITVTPKSFGSPGSLGKLLCEVTPVSGQERFVWSSLDTPSQRSFSGPWLEAQEAQLLSQPWQCQLYQGERLLGAAVYFTELSSPGAQRSGRAPGALPAGHLLLFLTLGVLSLLLLVTGAFGFHLWRRQWRPRRFSALEQGIHPRRLRAR | > 3 | 4.1
LAG-3 mutant R76E (receptor) LQPGAEVPVVWAQEGAPAQLPCSPTIPLQDLSLLRRAGVTWQHQPDSGPPAAAPGHPLAPGPHPAAPSSWGPRPREYTVLSVGPGGLRSGRLPLQPRVQLDERGRQRGDFSLWLRPARRADAGEYRAAVHLRDRALSCRLRLRLGQASMTASPPGSLRASDWVILNCSFSRPDRPASVHWFRNRGQGRVPVRESPHHHLAESFLFLPQVSPMDSGPWGCILTYRDGFNVSIMYNLTVLGLEPPTPLTVYAGAGSRVGLPCRLPAGVGTRSFLTAKWTPPGGGPDLLVTGDNGDFTLRLEDVSQAQAGTYTCHIHLQEQQLNATVTLAIITVTPKSFGSPGSLGKLLCEVTPVSGQERFVWSSLDTPSQRSFSGPWLEAQEAQLLSQPWQCQLYQGERLLGAAVYFTELSSPGAQRSGRAPGALPAGHLLLFLTLGVLSLLLLVTGAFGFHLWRRQWRPRRFSALEQGIHPRRLRAR | > 3 | 2.95
LAG-3 mutant H56F (receptor) LQPGAEVPVVWAQEGAPAQLPCSPTIPLQDLSLLRRAGVTWQHQPDSGPPAAAPGFPLAPGPHPAAPSSWGPRPRRYTVLSVGPGGLRSGRLPLQPRVQLDERGRQRGDFSLWLRPARRADAGEYRAAVHLRDRALSCRLRLRLGQASMTASPPGSLRASDWVILNCSFSRPDRPASVHWFRNRGQGRVPVRESPHHHLAESFLFLPQVSPMDSGPWGCILTYRDGFNVSIMYNLTVLGLEPPTPLTVYAGAGSRVGLPCRLPAGVGTRSFLTAKWTPPGGGPDLLVTGDNGDFTLRLEDVSQAQAGTYTCHIHLQEQQLNATVTLAIITVTPKSFGSPGSLGKLLCEVTPVSGQERFVWSSLDTPSQRSFSGPWLEAQEAQLLSQPWQCQLYQGERLLGAAVYFTELSSPGAQRSGRAPGALPAGHLLLFLTLGVLSLLLLVTGAFGFHLWRRQWRPRRFSALEQGIHPRRLRAR |  | 0.89
LAG-3 mutant H63A (receptor) LQPGAEVPVVWAQEGAPAQLPCSPTIPLQDLSLLRRAGVTWQHQPDSGPPAAAPGHPLAPGPAPAAPSSWGPRPRRYTVLSVGPGGLRSGRLPLQPRVQLDERGRQRGDFSLWLRPARRADAGEYRAAVHLRDRALSCRLRLRLGQASMTASPPGSLRASDWVILNCSFSRPDRPASVHWFRNRGQGRVPVRESPHHHLAESFLFLPQVSPMDSGPWGCILTYRDGFNVSIMYNLTVLGLEPPTPLTVYAGAGSRVGLPCRLPAGVGTRSFLTAKWTPPGGGPDLLVTGDNGDFTLRLEDVSQAQAGTYTCHIHLQEQQLNATVTLAIITVTPKSFGSPGSLGKLLCEVTPVSGQERFVWSSLDTPSQRSFSGPWLEAQEAQLLSQPWQCQLYQGERLLGAAVYFTELSSPGAQRSGRAPGALPAGHLLLFLTLGVLSLLLLVTGAFGFHLWRRQWRPRRFSALEQGIHPRRLRAR |  | 0.83
LAG-3 mutant H63F (receptor) LQPGAEVPVVWAQEGAPAQLPCSPTIPLQDLSLLRRAGVTWQHQPDSGPPAAAPGHPLAPGPFPAAPSSWGPRPRRYTVLSVGPGGLRSGRLPLQPRVQLDERGRQRGDFSLWLRPARRADAGEYRAAVHLRDRALSCRLRLRLGQASMTASPPGSLRASDWVILNCSFSRPDRPASVHWFRNRGQGRVPVRESPHHHLAESFLFLPQVSPMDSGPWGCILTYRDGFNVSIMYNLTVLGLEPPTPLTVYAGAGSRVGLPCRLPAGVGTRSFLTAKWTPPGGGPDLLVTGDNGDFTLRLEDVSQAQAGTYTCHIHLQEQQLNATVTLAIITVTPKSFGSPGSLGKLLCEVTPVSGQERFVWSSLDTPSQRSFSGPWLEAQEAQLLSQPWQCQLYQGERLLGAAVYFTELSSPGAQRSGRAPGALPAGHLLLFLTLGVLSLLLLVTGAFGFHLWRRQWRPRRFSALEQGIHPRRLRAR |  | 0.91
wild-type LAG-3 (lymphocyte activation gene 3 protein) (receptor) LQPGAEVPVVWAQEGAPAQLPCSPTIPLQDLSLLRRAGVTWQHQPDSGPPAAAPGHPLAPGPHPAAPSSWGPRPRRYTVLSVGPGGLRSGRLPLQPRVQLDERGRQRGDFSLWLRPARRADAGEYRAAVHLRDRALSCRLRLRLGQASMTASPPGSLRASDWVILNCSFSRPDRPASVHWFRNRGQGRVPVRESPHHHLAESFLFLPQVSPMDSGPWGCILTYRDGFNVSIMYNLTVLGLEPPTPLTVYAGAGSRVGLPCRLPAGVGTRSFLTAKWTPPGGGPDLLVTGDNGDFTLRLEDVSQAQAGTYTCHIHLQEQQLNATVTLAIITVTPKSFGSPGSLGKLLCEVTPVSGQERFVWSSLDTPSQRSFSGPWLEAQEAQLLSQPWQCQLYQGERLLGAAVYFTELSSPGAQRSGRAPGALPAGHLLLFLTLGVLSLLLLVTGAFGFHLWRRQWRPRRFSALEQGIHPRRLRAR |  | 1
LAG-3 mutant R88A (receptor) LQPGAEVPVVWAQEGAPAQLPCSPTIPLQDLSLLRRAGVTWQHQPDSGPPAAAPGHPLAPGPHPAAPSSWGPRPRRYTVLSVGPGGLASGRLPLQPRVQLDERGRQRGDFSLWLRPARRADAGEYRAAVHLRDRALSCRLRLRLGQASMTASPPGSLRASDWVILNCSFSRPDRPASVHWFRNRGQGRVPVRESPHHHLAESFLFLPQVSPMDSGPWGCILTYRDGFNVSIMYNLTVLGLEPPTPLTVYAGAGSRVGLPCRLPAGVGTRSFLTAKWTPPGGGPDLLVTGDNGDFTLRLEDVSQAQAGTYTCHIHLQEQQLNATVTLAIITVTPKSFGSPGSLGKLLCEVTPVSGQERFVWSSLDTPSQRSFSGPWLEAQEAQLLSQPWQCQLYQGERLLGAAVYFTELSSPGAQRSGRAPGALPAGHLLLFLTLGVLSLLLLVTGAFGFHLWRRQWRPRRFSALEQGIHPRRLRAR |  | 0.18
LAG-3 mutant R107K (receptor) LQPGAEVPVVWAQEGAPAQLPCSPTIPLQDLSLLRRAGVTWQHQPDSGPPAAAPGHPLAPGPHPAAPSSWGPRPRRYTVLSVGPGGLRSGRLPLQPRVQLDERGRQKGDFSLWLRPARRADAGEYRAAVHLRDRALSCRLRLRLGQASMTASPPGSLRASDWVILNCSFSRPDRPASVHWFRNRGQGRVPVRESPHHHLAESFLFLPQVSPMDSGPWGCILTYRDGFNVSIMYNLTVLGLEPPTPLTVYAGAGSRVGLPCRLPAGVGTRSFLTAKWTPPGGGPDLLVTGDNGDFTLRLEDVSQAQAGTYTCHIHLQEQQLNATVTLAIITVTPKSFGSPGSLGKLLCEVTPVSGQERFVWSSLDTPSQRSFSGPWLEAQEAQLLSQPWQCQLYQGERLLGAAVYFTELSSPGAQRSGRAPGALPAGHLLLFLTLGVLSLLLLVTGAFGFHLWRRQWRPRRFSALEQGIHPRRLRAR |  | 1.02
LAG-3 mutant D109E (receptor) LQPGAEVPVVWAQEGAPAQLPCSPTIPLQDLSLLRRAGVTWQHQPDSGPPAAAPGHPLAPGPHPAAPSSWGPRPRRYTVLSVGPGGLRSGRLPLQPRVQLDERGRQRGEFSLWLRPARRADAGEYRAAVHLRDRALSCRLRLRLGQASMTASPPGSLRASDWVILNCSFSRPDRPASVHWFRNRGQGRVPVRESPHHHLAESFLFLPQVSPMDSGPWGCILTYRDGFNVSIMYNLTVLGLEPPTPLTVYAGAGSRVGLPCRLPAGVGTRSFLTAKWTPPGGGPDLLVTGDNGDFTLRLEDVSQAQAGTYTCHIHLQEQQLNATVTLAIITVTPKSFGSPGSLGKLLCEVTPVSGQERFVWSSLDTPSQRSFSGPWLEAQEAQLLSQPWQCQLYQGERLLGAAVYFTELSSPGAQRSGRAPGALPAGHLLLFLTLGVLSLLLLVTGAFGFHLWRRQWRPRRFSALEQGIHPRRLRAR |  | 0.18
LAG-3 double mutant D133A/R134A (receptor) LQPGAEVPVVWAQEGAPAQLPCSPTIPLQDLSLLRRAGVTWQHQPDSGPPAAAPGHPLAPGPHPAAPSSWGPRPRRYTVLSVGPGGLRSGRLPLQPRVQLDERGRQRGDFSLWLRPARRADAGEYRAAVHLRAAALSCRLRLRLGQASMTASPPGSLRASDWVILNCSFSRPDRPASVHWFRNRGQGRVPVRESPHHHLAESFLFLPQVSPMDSGPWGCILTYRDGFNVSIMYNLTVLGLEPPTPLTVYAGAGSRVGLPCRLPAGVGTRSFLTAKWTPPGGGPDLLVTGDNGDFTLRLEDVSQAQAGTYTCHIHLQEQQLNATVTLAIITVTPKSFGSPGSLGKLLCEVTPVSGQERFVWSSLDTPSQRSFSGPWLEAQEAQLLSQPWQCQLYQGERLLGAAVYFTELSSPGAQRSGRAPGALPAGHLLLFLTLGVLSLLLLVTGAFGFHLWRRQWRPRRFSALEQGIHPRRLRAR |  | 0.78
LAG-3 mutant D225L (receptor) LQPGAEVPVVWAQEGAPAQLPCSPTIPLQDLSLLRRAGVTWQHQPDSGPPAAAPGHPLAPGPHPAAPSSWGPRPRRYTVLSVGPGGLRSGRLPLQPRVQLDERGRQRGDFSLWLRPARRADAGEYRAAVHLRDRALSCRLRLRLGQASMTASPPGSLRASDWVILNCSFSRPDRPASVHWFRNRGQGRVPVRESPHHHLAESFLFLPQVSPMDSGPWGCILTYRLGFNVSIMYNLTVLGLEPPTPLTVYAGAGSRVGLPCRLPAGVGTRSFLTAKWTPPGGGPDLLVTGDNGDFTLRLEDVSQAQAGTYTCHIHLQEQQLNATVTLAIITVTPKSFGSPGSLGKLLCEVTPVSGQERFVWSSLDTPSQRSFSGPWLEAQEAQLLSQPWQCQLYQGERLLGAAVYFTELSSPGAQRSGRAPGALPAGHLLLFLTLGVLSLLLLVTGAFGFHLWRRQWRPRRFSALEQGIHPRRLRAR |  | 0.89
LAG-3 mutant Q13A (receptor) LQPGAEVPVVWAAEGAPAQLPCSPTIPLQDLSLLRRAGVTWQHQPDSGPPAAAPGHPLAPGPHPAAPSSWGPRPRRYTVLSVGPGGLRSGRLPLQPRVQLDERGRQRGDFSLWLRPARRADAGEYRAAVHLRDRALSCRLRLRLGQASMTASPPGSLRASDWVILNCSFSRPDRPASVHWFRNRGQGRVPVRESPHHHLAESFLFLPQVSPMDSGPWGCILTYRDGFNVSIMYNLTVLGLEPPTPLTVYAGAGSRVGLPCRLPAGVGTRSFLTAKWTPPGGGPDLLVTGDNGDFTLRLEDVSQAQAGTYTCHIHLQEQQLNATVTLAIITVTPKSFGSPGSLGKLLCEVTPVSGQERFVWSSLDTPSQRSFSGPWLEAQEAQLLSQPWQCQLYQGERLLGAAVYFTELSSPGAQRSGRAPGALPAGHLLLFLTLGVLSLLLLVTGAFGFHLWRRQWRPRRFSALEQGIHPRRLRAR |  | 0.92
